The record followed here is PMC4005650.

For assay [1], the target named is T1, LtrA, intron-encoded protein (IEP) of the Lactococcus lactis Ll.LtrB group II intron (Lactococcus lactis), P0A3U0.
T1 chain: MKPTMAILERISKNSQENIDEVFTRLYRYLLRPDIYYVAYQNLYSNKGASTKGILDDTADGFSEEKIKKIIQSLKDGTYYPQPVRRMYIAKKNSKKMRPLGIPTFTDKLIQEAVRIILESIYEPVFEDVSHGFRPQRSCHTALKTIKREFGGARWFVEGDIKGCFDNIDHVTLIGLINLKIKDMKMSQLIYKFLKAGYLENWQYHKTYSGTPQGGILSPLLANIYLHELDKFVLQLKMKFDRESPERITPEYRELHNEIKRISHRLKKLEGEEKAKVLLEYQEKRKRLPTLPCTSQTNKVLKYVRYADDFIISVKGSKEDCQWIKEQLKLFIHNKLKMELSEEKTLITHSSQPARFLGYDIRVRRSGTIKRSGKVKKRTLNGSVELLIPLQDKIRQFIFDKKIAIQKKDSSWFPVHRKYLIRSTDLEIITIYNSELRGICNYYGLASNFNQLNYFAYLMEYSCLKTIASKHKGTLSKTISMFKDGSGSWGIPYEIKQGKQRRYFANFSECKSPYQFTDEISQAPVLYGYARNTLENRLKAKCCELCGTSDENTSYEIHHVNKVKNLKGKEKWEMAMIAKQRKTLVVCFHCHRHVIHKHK
Kind of assay: SEC-MALS; purified +A RNP (LtrA with 902 nt intron lariat RNA) on Superdex 200 10/300 GL; 20 mM Tris pH 7.4, 200 mM KCl, 5 mM MgCl2; room temperature; mass-averaged dn/dc 0.182 ml/g. Conditions: remark: other sources report otherwise. In general terms: In gel filtration, larger molecules generally elute earlier.

In assay [2] the target is T1, LtrA, intron-encoded protein (IEP) of …. In words: AUC; sedimentation velocity of purified +A RNP at 7-14 ng/µl; 4°C; 28 000 rpm; 20 mM Tris pH 7.4, 200 mM KCl, 5 mM MgCl2; absorbance at 260 nm; SEDFIT. To be noted: remark: other sources report otherwise.

B1: LtrA, intron-encoded protein (IEP) of the Lactococcus lactis Ll.LtrB group II intron, P0A3U0 1-599 (natural protein)
chain: MKPTMAILERISKNSQENIDEVFTRLYRYLLRPDIYYVAYQNLYSNKGASTKGILDDTADGFSEEKIKKIIQSLKDGTYYPQPVRRMYIAKKNSKKMRPLGIPTFTDKLIQEAVRIILESIYEPVFEDVSHGFRPQRSCHTALKTIKREFGGARWFVEGDIKGCFDNIDHVTLIGLINLKIKDMKMSQLIYKFLKAGYLENWQYHKTYSGTPQGGILSPLLANIYLHELDKFVLQLKMKFDRESPERITPEYRELHNEIKRISHRLKKLEGEEKAKVLLEYQEKRKRLPTLPCTSQTNKVLKYVRYADDFIISVKGSKEDCQWIKEQLKLFIHNKLKMELSEEKTLITHSSQPARFLGYDIRVRRSGTIKRSGKVKKRTLNGSVELLIPLQDKIRQFIFDKKIAIQKKDSSWFPVHRKYLIRSTDLEIITIYNSELRGICNYYGLASNFNQLNYFAYLMEYSCLKTIASKHKGTLSKTISMFKDGSGSWGIPYEIKQGKQRRYFANFSECKSPYQFTDEISQAPVLYGYARNTLENRLKAKCCELCGTSDENTSYEIHHVNKVKNLKGKEKWEMAMIAKQRKTLVVCFHCHRHVIHKHK
On to B1, for which the stoichiometry N in assay [1] and in assay [2] was 2 in each case.
